This is an account of results in US20240361334A1.

The EC50 is the concentration needed to bring the measured effect to its halfway point. Broadly, the Kd is the equilibrium constant for the complex coming apart. A high value points to weaker binding.

Assay [1] concerns the target human C1q protein (Sigma-Aldrich #C1740) (human) (UniProt P02745). In words: HTRF sandwich, biotin-anti-human Fab 1/SA-d2, Eu-anti-C1q, buffer 2, with 150 nM human TNF-α. Background: TR-FRET usually uses a lanthanide donor and a delayed reading to cut background.
For assay [2] the target is unchanged. Description: HTRF sandwich, biotin-Protein L/SA-d2, Eu-anti-C1q.
Assay [3] shares this target. In words: HTRF sandwich, biotin-anti-human Fab 2/SA-d2, Eu-anti-C1q.
For assay [4] the target is unchanged. In words: HTRF sandwich, biotin-anti-human Fab 1/SA-d2, Eu-anti-C1q, buffer 2.
Assay [5] concerns the target Human myeloma IgG1 purified from human plasma (Sigma-Aldrich #I5154). Description: HTRF saturation binding, anti-Fab-d2 on Eu cryptate-IgG.
For assay [6], the target named is Human myeloma IgG4 purified from human plasma (Sigma-Aldrich #I4764). The assay is described as above.
The target of assay [7] is Human myeloma IgG2 purified from human plasma (Sigma-Aldrich #I5404). Description: HTRF saturation binding, biotin-anti-Fab/SA-d2 on Eu cryptate-IgG.
In assay [8] the target is Human myeloma IgG1 purified from human plasma (Sigma-Aldrich #I5154). The assay is described as above.
Assay [9] addresses Human myeloma IgG4 purified from human plasma (Sigma-Aldrich #I4764). Described as above.
For assay [10], the target named is human C1q protein (Sigma-Aldrich #C1740) (human) (UniProt P02745). In words: HTRF sandwich, 50 nM biotin-anti-human Fab 1/SA-d2, Eu-anti-C1q, buffer 2.
The target is the same in assay [11]. Description: HTRF sandwich, 30 nM biotin-anti-human Fab 1/SA-d2, Eu-anti-C1q, buffer 2.
Assay [12] shares this target. In words: HTRF sandwich, biotin-anti-human Fab 1/SA-d2, Eu-anti-C1q, buffer 1.
Assay [13] has the same target. In words: HTRF sandwich, biotin-anti-human Fab 1/SA-d2, Tb cryptate-C1q.
For assay [14] the target is unchanged. In words: AlphaLISA sandwich, biotin-anti-human Fab 1/streptavidin donor beads, anti-C1q acceptor beads. Background: In Alpha technology, singlet oxygen from a donor bead excites a nearby acceptor bead.
The target is the same in assay [15]. In words: HTRF sandwich, 40 nM biotin-anti-human Fab 1/SA-d2, Eu-anti-C1q, buffer 2.
For assay [16] the target is unchanged. In words: HTRF sandwich, biotin-anti-human Fab 1/SA-d2, Eu-anti-C1q, 155 mM NaCl.
The target is the same in assay [17]. In words: HTRF sandwich, biotin-anti-human Fab 1/SA-d2, Eu-anti-C1q, 135 mM NaCl.
Assay [18] has the same target. In words: HTRF sandwich, anti-human Fab 2-d2 without streptavidin, Eu-anti-C1q.

Adalimumab (+150 nM TNF-α), sequence (P01375 77-233): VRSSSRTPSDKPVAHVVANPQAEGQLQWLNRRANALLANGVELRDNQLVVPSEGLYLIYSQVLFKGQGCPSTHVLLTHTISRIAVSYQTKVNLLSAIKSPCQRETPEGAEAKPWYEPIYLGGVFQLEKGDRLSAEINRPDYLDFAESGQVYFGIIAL

On to “Adalimumab (+150 nM TNF-α) (from UniProt P01375 77-233)”, for which, in assay [1], the half-maximal effective concentration (EC50) amounted to 0.0046 µM and the S/B amounted to 6.9.

As to Adalimumab (antibody), the EC50 in assay [2] stood at 0.0698 µM; in assay [3], 0.008 µM; in [4], 0.0072 µM.

Take “Anti-human Fab 1: anti-human IgG Fab, mouse IgG2b, monoclonal antibody, clone 4A11 (ThermoFisher Scientific #SA1-19255)”: the Kd in assay [5] came to 0.00016 µM; in assay [6], 0.00044 µM; in assay [7] it was 0.00037 µM; in assay [8], 0.0002 µM; in assay [9], 0.00033 µM.

As to “Anti-human Fab 2: anti-human IgG Fab, mouse IgG2b, monoclonal antibody, clone 2A11 (GeneTex #GTX27497)”, the dissociation constant Kd is 0.0002 µM in [5]; 0.00045 µM in assay [6]; 0.00047 µM in assay [7]; 0.00026 µM in assay [8]; 0.0004 µM in assay [9].

Turning to Atezolizumab (antibody), the EC50 in [10] amounted to 0.0109 µM; in [11] it was 0.0072 µM; in [12], 0.0132 µM.

Regarding Cetuximab (antibody), the EC50 in assay [12] stood at 0.0169 µM.

For “Cetuximab IgG2 isotype (InvivoGen #hegfr-mab2) (from UniProt P01859 1-326) (antibody)”, the EC50 in assay [12] came out at 0.048 µM.

Regarding “Human IgG1 Isotype Control Recombinant Antibody (BioLegend #403502)”, the results for the EC50 in assay [13], in assay [14] and in assay [12] were 0.0137 µM, 0.0237 µM and 0.0173 µM, respectively. Besides, in assay [14], the S/B was 752.

In the case of “Human IgG2 Isotype Control Recombinant Antibody (BioLegend #403602)”, the EC50 in [15] is 0.0257 µM; in assay [13], 0.0736 µM; in assay [10], 0.0306 µM; in assay [11], 0.0192 µM; in assay [12], 0.034 µM.

The substance Ipilimumab (antibody) showed a concentration giving a half-maximal response (EC50) in assay [12] of 0.0132 µM.

In assay [12], “Ipilimumab IgG2 isotype (InvivoGen #hctla4-mab2) (from UniProt P01859 1-326) (antibody)” showed an EC50 of 0.0533 µM.

In the case of “Non-fucosylated Rituximab (InvivoGen #hcd20-mab13) (from UniProt P01857 1-330) (antibody)”, the half-maximal effective concentration (EC50) in [12] came to 0.0162 µM.

On to “Non-glycosylated Cetuximab (InvivoGen #hegfr-mab12) (antibody)”, for which, in assay [12], the EC50 turned out to be 0.0102 µM and the S/B stood at 1.4.

“Non-glycosylated Rituximab (InvivoGen #hcd20-mab12) (antibody)” gave an EC50 in [12] of 0.025 µM.

For the substance Obinutuzumab (antibody), the EC50 in assay [16] was determined as 0.0197 µM; in assay [17] it was 0.0186 µM; in [12] it was 0.0186 µM. In [16], this substance had a S/B of 1.6.

As for Rituximab (antibody), the EC50 in [16] stood at 0.0289 µM; in assay [13], 0.0144 µM; in [3], 0.0117 µM; in assay [17], 0.0155 µM; in assay [14] it was 0.0268 µM; in assay [12] it was 0.0155 µM. This substance showed an EC50 in [18] of 0.024 µM.

Consider “Rituximab IgG2 isotype (InvivoGen #hcd20-mab2) (from UniProt P01859 1-326) (antibody)”, for which the EC50 was found to be 0.0376 µM in assay [16], 0.0383 µM in [17] and 0.0387 µM in [12].
